Experimental data: patent US20140308307A1 (University of Texas, published 2014)

B1: F2F3 fragment of CPSF30 (construct not stated) (other)
chain: SGEKTVVCKHWLRGLCKKGDQCEFLHEYDMTKMPECYFYSKFGECSNKECPFLHIDPESKI

Columns and labels:
[1] = biological target: 30-kDa subunit of the cellular cleavage and polyadenylation specificity factor (CPSF30), human (human) (UniProt O95639); assay: cell-based or functional assay
[2] = biological target: NS1A protein of the influenza A/PR8/34 (PR8) virus strain (influenza A virus A/PR8/34, UniProt P03496 1-230); assay: not described
Chain of NS1A protein of the influenza A/PR8/34 (PR8) virus strain (P03496 whole entry): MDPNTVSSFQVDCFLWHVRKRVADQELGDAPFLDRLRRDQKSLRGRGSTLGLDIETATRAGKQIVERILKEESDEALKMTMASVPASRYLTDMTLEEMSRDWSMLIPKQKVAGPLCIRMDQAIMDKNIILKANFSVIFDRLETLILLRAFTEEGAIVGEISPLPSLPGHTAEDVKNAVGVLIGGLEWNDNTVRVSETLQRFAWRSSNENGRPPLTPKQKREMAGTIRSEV

Chain of 30-kDa subunit of the cellular cleavage and polyadenylation specificity factor (CPSF30), human (human) (O95639 whole entry): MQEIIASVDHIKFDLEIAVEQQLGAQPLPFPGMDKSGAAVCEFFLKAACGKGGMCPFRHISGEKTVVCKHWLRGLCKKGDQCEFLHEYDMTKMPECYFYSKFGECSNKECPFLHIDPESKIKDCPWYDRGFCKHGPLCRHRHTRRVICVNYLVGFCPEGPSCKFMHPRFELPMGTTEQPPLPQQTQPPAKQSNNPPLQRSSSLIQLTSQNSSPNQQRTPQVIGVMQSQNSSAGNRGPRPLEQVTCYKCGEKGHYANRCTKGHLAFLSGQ

Row | Molecule | rate of replication and virus yield during multiple cycle growth [1] [fold] | binding result [2]
1 | HK97 NS1A protein with I at position 106 changed to M and L at 103 changed to F | 100 | –
2 | B1 | – | no binding
